Results taken from patent US20180072798A1.

Experiments:
[1] = target: DENV-1 virus particle, strain 05K2916 (167), live (dengue virus serotype 1 (DENV-1), strain 05K2916); assay: cell-based or functional assay
[2] = target: DENV-2 virus particle, strain TSV01, live (dengue virus serotype 2 (DENV-2), strain TSV01); assay: cell-based or functional assay
[3] = target: DENV-3 virus, strain VN32/96 (dengue virus serotype 3 (DENV-3), strain VN32/96); assay: cell-based or functional assay
[4] = target: DENV-4 virus particle, strain 2641Y08, live (dengue virus serotype 4 (DENV-4), strain 2641Y08); assay: cell-based or functional assay
[5] = target: DENV-2 (TSV01) E protein mutant E49A, soluble part, V5 tag, from S2 cells (dengue virus serotype 2 (DENV-2), strain TSV01); assay: sandwich ELISA, V5-tagged soluble E captured by anti-V5
[6] = target: DENV-2 (TSV01) E protein mutant F108A, soluble part, V5 tag, from S2 cells (dengue virus serotype 2 (DENV-2), strain TSV01); assay: as above
[7] = target: DENV-2 (TSV01) E protein mutant G100A, soluble part, V5 tag, from S2 cells (dengue virus serotype 2 (DENV-2), strain TSV01); assay: as above
[8] = target: DENV-2 (TSV01) E protein mutant K295A, soluble part, V5 tag, from S2 cells (dengue virus serotype 2 (DENV-2), strain TSV01); assay: as above
[9] = target: DENV-2 (TSV01) E protein mutant K64A, soluble part, V5 tag, from S2 cells (dengue virus serotype 2 (DENV-2), strain TSV01); assay: as above
[10] = target: DENV-2 (TSV01) E protein mutant N134A, soluble part, V5 tag, from S2 cells (dengue virus serotype 2 (DENV-2), strain TSV01); assay: as above
[11] = target: DENV-2 (TSV01) E protein mutant N153A, soluble part, V5 tag, from S2 cells (dengue virus serotype 2 (DENV-2), strain TSV01); assay: as above
[12] = target: DENV-2 (TSV01) E protein mutant N203A, soluble part, V5 tag, from S2 cells (dengue virus serotype 2 (DENV-2), strain TSV01); assay: as above
[13] = target: DENV-2 (TSV01) E protein mutant Q167A, soluble part, V5 tag, from S2 cells (dengue virus serotype 2 (DENV-2), strain TSV01); assay: as above
[14] = target: DENV-2 (TSV01) E protein mutant Q77A, soluble part, V5 tag, from S2 cells (dengue virus serotype 2 (DENV-2), strain TSV01); assay: as above
[15] = target: DENV-2 (TSV01) E protein mutant R323A, soluble part, V5 tag, from S2 cells (dengue virus serotype 2 (DENV-2), strain TSV01); assay: as above
[16] = target: DENV-2 (TSV01) E protein mutant S169A, soluble part, V5 tag, from S2 cells (dengue virus serotype 2 (DENV-2), strain TSV01); assay: as above
[17] = target: DENV-2 (TSV01) E protein mutant S274A, soluble part, V5 tag, from S2 cells (dengue virus serotype 2 (DENV-2), strain TSV01); assay: as above
[18] = target: DENV-2 (TSV01) E protein mutant T155A, soluble part, V5 tag, from S2 cells (dengue virus serotype 2 (DENV-2), strain TSV01); assay: as above
[19] = target: DENV-2 (TSV01) E protein mutant W101A, soluble part, V5 tag, from S2 cells (dengue virus serotype 2 (DENV-2), strain TSV01); assay: as above
[20] = target: DENV-2 (TSV01) wildtype E protein, full length, expressed with prM in HEK293 cells (dengue virus serotype 2 (DENV-2), strain TSV01); assay: flow cytometry on transfected HEK293 cells; the reference itself
[21] = target: DENV-2 (TSV01) wildtype E protein, soluble part, V5 tag, from S2 cells (dengue virus serotype 2 (DENV-2), strain TSV01); assay: sandwich ELISA, V5-tagged soluble E captured by anti-V5; the reference itself
[22] = target: DENV-2 (TSV01) E protein mutant E161A, full length, expressed with prM in HEK293 cells (dengue virus serotype 2 (DENV-2), strain TSV01); assay: flow cytometry on transfected HEK293 cells, normalised to 3H5 staining and to wt
[23] = target: DENV-2 (TSV01) E protein mutant E202A, full length, expressed with prM in HEK293 cells (dengue virus serotype 2 (DENV-2), strain TSV01); assay: as above
[24] = target: DENV-2 (TSV01) E protein mutant E49A, full length, expressed with prM in HEK293 cells (dengue virus serotype 2 (DENV-2), strain TSV01); assay: as above
[25] = target: DENV-2 (TSV01) E protein mutant F392A, full length, expressed with prM in HEK293 cells (dengue virus serotype 2 (DENV-2), strain TSV01); assay: as above
[26] = target: DENV-2 (TSV01) E protein mutant I162A, full length, expressed with prM in HEK293 cells (dengue virus serotype 2 (DENV-2), strain TSV01); assay: as above
[27] = target: DENV-2 (TSV01) E protein mutant K122A, full length, expressed with prM in HEK293 cells (dengue virus serotype 2 (DENV-2), strain TSV01); assay: as above
[28] = target: DENV-2 (TSV01) E protein mutant K295A, full length, expressed with prM in HEK293 cells (dengue virus serotype 2 (DENV-2), strain TSV01); assay: as above
[29] = target: DENV-2 (TSV01) E protein mutant K310A, full length, expressed with prM in HEK293 cells (dengue virus serotype 2 (DENV-2), strain TSV01); assay: as above
[30] = target: DENV-2 (TSV01) E protein mutant N134A, full length, expressed with prM in HEK293 cells (dengue virus serotype 2 (DENV-2), strain TSV01); assay: as above
[31] = target: DENV-2 (TSV01) E protein mutant N153A, full length, expressed with prM in HEK293 cells (dengue virus serotype 2 (DENV-2), strain TSV01); assay: as above
[32] = target: DENV-2 (TSV01) E protein mutant N203A, full length, expressed with prM in HEK293 cells (dengue virus serotype 2 (DENV-2), strain TSV01); assay: as above
[33] = target: DENV-2 (TSV01) E protein mutant Q200A, full length, expressed with prM in HEK293 cells (dengue virus serotype 2 (DENV-2), strain TSV01); assay: as above
[34] = target: DENV-2 (TSV01) E protein mutant Q77A, full length, expressed with prM in HEK293 cells (dengue virus serotype 2 (DENV-2), strain TSV01); assay: as above
[35] = target: DENV-2 (TSV01) E protein mutant R323A, full length, expressed with prM in HEK293 cells (dengue virus serotype 2 (DENV-2), strain TSV01); assay: as above
[36] = target: DENV-2 (TSV01) E protein mutant S169A, full length, expressed with prM in HEK293 cells (dengue virus serotype 2 (DENV-2), strain TSV01); assay: as above
[37] = target: DENV-2 (TSV01) E protein mutant T155A, full length, expressed with prM in HEK293 cells (dengue virus serotype 2 (DENV-2), strain TSV01); assay: as above
[38] = target: DENV-2 (TSV01) E protein mutant W101A, full length, expressed with prM in HEK293 cells (dengue virus serotype 2 (DENV-2), strain TSV01); assay: as above
[39] = target: DENV-2 (TSV01) E protein mutant W391A, full length, expressed with prM in HEK293 cells (dengue virus serotype 2 (DENV-2), strain TSV01); assay: as above

B1: 3C H5L1 antibody (antibody, V domains shown)
VH: EVQLVQSGPDVEKPGASVKVSCKASGYTFTSNYIHWVRQAPGQGLEWMGVINPRGGSTASAQKFQGRITMTRDTSTSTVYMELSSLRSDDTAVYYCARGGRALFYDSYTTPRDGGSWWFDPWGQGSLVTVSS
VL: DIQLTQSPSSLSASVGDRVTFTCQASQDIRKYLNWYQQKPGKAPKLLIYDASNLKTGVPSRFSGSGSGTDFTFTISSLQPEDVATYYCQQFDDLPITFGQGTRLQIK
EC50, plaque reduction neutralization test (PRNT) on BHK-21 cells [1]: 0.6 µg/mL | EC50, plaque reduction neutralization test (PRNT) on BHK-21 cells [2]: 0.001 µg/mL | EC50, plaque reduction neutralization test (PRNT) on BHK-21 cells [3]: 0.5 µg/mL | EC50, plaque reduction neutralization test (PRNT) on BHK-21 cells [4]: 0.07 µg/mL | relative binding (normalised to wt E protein) (ratio to wt E protein) [5]: 0.695 | relative binding (normalised to wt E protein) (ratio to wt E protein) [6]: 0.806 | relative binding (normalised to wt E protein) (ratio to wt E protein) [7]: 0.186 | relative binding (normalised to wt E protein) (ratio to wt E protein) [8]: 0.189 | relative binding (normalised to wt E protein) (ratio to wt E protein) [9]: 0.444 | relative binding (normalised to wt E protein) (ratio to wt E protein) [10]: 0.221 | relative binding (normalised to wt E protein) (ratio to wt E protein) [11]: 0.806 | relative binding (normalised to wt E protein) (ratio to wt E protein) [12]: 0.72 | relative binding (normalised to wt E protein) (ratio to wt E protein) [13]: 0.774 | relative binding (normalised to wt E protein) (ratio to wt E protein) [14]: 0.747 | relative binding (normalised to wt E protein) (ratio to wt E protein) [15]: 0.334 | relative binding (normalised to wt E protein) (ratio to wt E protein) [16]: 0.784 | relative binding (normalised to wt E protein) (ratio to wt E protein) [17]: 0.0859 | relative binding (normalised to wt E protein) (ratio to wt E protein) [18]: 0.839 | relative binding (normalised to wt E protein) (ratio to wt E protein) [19]: 0.242 | relative binding (normalised to wt E protein) (ratio to wt E protein) [20]: 1 | relative binding (normalised to wt E protein) (ratio to wt E protein) [21]: 1 | relative binding (normalised to wt E protein) (ratio to wt E protein) [22]: 1.07 | relative binding (normalised to wt E protein) (ratio to wt E protein) [23]: 2.02 | relative binding (normalised to wt E protein) (ratio to wt E protein) [24]: 0.996 | relative binding (normalised to wt E protein) (ratio to wt E protein) [25]: 0.133 | relative binding (normalised to wt E protein) (ratio to wt E protein) [26]: 0.242 | relative binding (normalised to wt E protein) (ratio to wt E protein) [27]: 0.27 | relative binding (normalised to wt E protein) (ratio to wt E protein) [28]: 1.04 | relative binding (normalised to wt E protein) (ratio to wt E protein) [29]: 0.15 | relative binding (normalised to wt E protein) (ratio to wt E protein) [30]: 1.08 | relative binding (normalised to wt E protein) (ratio to wt E protein) [31]: 0.535 | relative binding (normalised to wt E protein) (ratio to wt E protein) [32]: 0.719 | relative binding (normalised to wt E protein) (ratio to wt E protein) [33]: 0.394 | relative binding (normalised to wt E protein) (ratio to wt E protein) [34]: 0.38 | relative binding (normalised to wt E protein) (ratio to wt E protein) [35]: 0.416 | relative binding (normalised to wt E protein) (ratio to wt E protein) [36]: 0.963 | relative binding (normalised to wt E protein) (ratio to wt E protein) [37]: 0.621 | relative binding (normalised to wt E protein) (ratio to wt E protein) [38]: 0.165 | relative binding (normalised to wt E protein) (ratio to wt E protein) [39]: 0.144
